Values joined by “and” are separate entries in the source; they are usually repeats but may differ in a detail not shown here. Equal entries are not always repeated.
Tests used:
elastin-orcein = experiment: Elastolytic activity; format: biochemical; conditions: 100 mM Tris-HCl buffer pH 8.8, 37° C.
Method: Elastolytic activity of AL protease was estimated by the method of (Tsai et al. 1983) with slight modification. The reaction mixture in a total volume of 1.5 ml comprised of 20 mg elastin-orcein and an appropriate amount of the enzyme in 100 mM Tris-HCl buffer pH 8.8, was incubated at 37° C. for 1 h with constant shaking. The substrate was removed by centrifugation and increase in optical density was measured at 590 nm. A control reaction was performed using the denatured enzyme as described above. The concentration of soluble products liberated was calculated from a standard curve using elastase. One unit was defined as the amount of enzyme, which solubilizes 100 μg of elastin under standard reaction conditions.

[1] = Differential scanning calorimetry; format: physicochemical
Method: The influence of different parameters including pH, calcium ions, EDTA, and detergent on thermal stability of the AL protease was investigated by differential scanning calorimetry (DSC). Comparative studies were also performed with Subtilisin Carlsberg. Thermal scans of AL protease (0.3 mg protein/ml) and subtilisin (2.5 mg protein/ml in the presence of 1 mM phenyl-methanesulfonyl fluoride (PMSF); Sigma) were performed by increasing temperature from 25° C. to 95° C. at a scan rate of 1° C. per min on a VP-DSC (MicroCal, Northampton, Mass.). The thermograms were corrected by subtracting the base line, obtained from a blank scan of the no-enzyme solution, and normalized for protein concentration. The unfolding transition of the AL protease was fitted to a two-state model. The Tm (temperature at which heat capacity change is a maximum), the calorimetric (or true) enthalpy ΔHcal (peak area), and van't Hoff (or apparent) enthalpy AHVH (calculated from the shape of thermogram) were calculated using the Origin software provided by MicroCal.

casein = experiment: Residual protease activity after incubation (pH, temperature, detergent components); format: biochemical; conditions: for Enzyme activity after incubation: 90 min at 40° C.; for Residual activity (% of original activity): 1 h at 50° C.
Method: The effect of pH on enzyme stability was studied by incubating the enzyme in different buffers of varying pH values at 50° C. for 1 h and then measuring the residual activity using standard assay procedure. AL protease was very stable in a broad pH range, maintaining over 90% of its original activity between pH 6 and 11, and more than 70% activity at pH 12 (FIG. 8A).
The effect of temperature on activity of the two proteases was determined by assaying enzyme activity at different temperatures in glycine-NaOH buffer, pH 10, while the thermal stability was determined by incubating the enzymes at different temperatures followed by measuring the residual activity under standard conditions. These measurements were done both in the presence and absence of 5 mM Ca^2+. […] Its optimum temperature for activity was at 70° C. (FIG. 9A), but when incubated at that temperature the enzyme was inactivated within 1 h (FIG. 10A). […] At temperature values above 50° C. Ca^2+ was absolutely required for the thermal stability of AL-89 protease (FIG. 10B).
Assay of protease activity was performed according to Ferrero et al. with some modifications. One millilitre of the reaction mixture containing 1% casein in 50 mM glycine-NaOH buffer, pH 10.0 and an appropriate amount of enzyme was incubated at 50° C. for 20 min after which the reaction was terminated by addition of 0.5 ml of trichloroacetic acid and centrifuged. 2.5 ml sodium carbonate was added to 0.5 ml supernatant followed by 0.5 ml of 1 M Folin-Ciocalteau reagent. The reaction mixture was allowed to stand for 30 min at room temperature before measuring the absorbance at 660 nm. One unit of protease activity was defined as the amount of enzyme, which released 1 μg tyrosine per min under standard assay conditions.
Effect of oxidation by H2O2 on AL protease stability was determined by residual activity measurements because of the temperature-induced decomposition of the peroxide in the calorimeter. […] Residual activity of the AL protease was also studied after incubation with sodium tripolyphosphate (STP; Sigma), sodium-Zeolite 4A (Prayon Tessenderlo, Belgium) and sodium citrate, respectively, representing some of the sequestering agents used in washing detergents. The enzyme activity was unchanged in the presence of 0.01-0.05% (w/v) Zeolite and STP, respectively, after 90 min at 40° C., and more than 80% of the original activity was retained in the presence of 0.5 M citrate (data not shown).

Isoelectric point = format: physicochemical
[2] = Calcium content by ICP-SMS; format: physicochemical; conditions: after treatment with chelex
Method: One millilitre of the purified AL protease (3 mg protein) solution was dialyzed for 24 h at 4° C. against 1 L of 10 mM glycine-NaOH buffer, pH 10.0, pretreated for 48 h with Chelex 100 (BioRad, Hercules, Calif., USA; […]) placed in a dialysis bag. Thereafter the dialysis was repeated three times against the buffer containing Chelex 100 (1.5 g/l) for a total period of 36 h at 4° C. The buffer was prepared from deionised water and plastic containers were used throughout. The residual calcium content In the enzyme sample was determined using Inductively Coupled Plasma-Mass Spectrometry (ICP-SMS).

[3] = pre-treated with chelex, or with 5 mM Ca^2+ or 10.0 mM EDTA, pH 10.0
[4] = untreated, 10 mM glycine-NaOH buffer, pH 10.0 (subtilisin with 1 mM PMSF)

B1: AL protease: thermostable alkaline, non-Ca2+-dependent serine protease isolated from Nesterenkonia sp. nov. strain AL (DSM 15380); SEQ. ID. NO. 1 (protein, listed as Nesterenkonia sp.)
chain: QNPADSPHIGKVFFSTNQGDFVCSANIVASANQSTVATAGHCLHDGNGGQFARNFVFAPAYDYGESEHGVWAAEELVTSAEWANRGDFEHDYAFAVLETKGGTTVQQQVGTASPIAFNQPRGQYYSAYGYPAAAPFNGQELHSCHGTATNDPMGSSTQGIPCNMTGGSSGGPWFLGQGTGGAQNSVNSYGYTFLPDVMFGPYFGSGAQQNYNYAST
elastin-orcein
  Hydrolysis of elastin-orcein: able to hydrolyse elastin-orcein to a detectable level
[1]; 1% SDS vs untreated, pH 10.0
  Decrease in Tm: 1.4 °C
  Decrease in ΔHcal: 4 kcal/mol
[1]; +0.1% SDS, pH 10.0
  Tm: 74.5 ± 0.03 °C
  ΔHcal: 158 ± 0.7 kcal/mol
[1]; +0.5% SDS, pH 10.0
  Tm: 74.1 ± 0.02 °C
  ΔHcal: 158 ± 0.7 kcal/mol
[1]; +1% SDS, pH 10.0
  Tm: 73.1 ± 0.02 °C
  ΔHcal: 154 ± 0.6 kcal/mol
[1]; at any given pH
  Mean ratio of ΔHcal to ΔHvH: close to unity (±0.05)
[1]; pH 6
  Tm: 69.7 °C and 69.7 ± 0.02 °C
  ΔHcal: 141 kcal/mol and 141.0 ± 0.5 kcal/mol
  ΔHcal/ΔHvH: 0.94
  ΔHvH: 150.0 ± 1.2 kcal/mol
[1]; pH 7
  Tm: 73.5 ± 0.02 °C
  ΔHcal: 149.0 ± 0.5 kcal/mol
  ΔHcal/ΔHvH: 1.02
  ΔHvH: 147.0 ± 1.2 kcal/mol
[1]; pH 7-10
  Melting temperature: about 74 °C
[1]; pH 8
  Tm: 74.3 ± 0.02 °C
  ΔHcal: 158.0 ± 0.5 kcal/mol
  ΔHcal/ΔHvH: 0.93
  ΔHvH: 171.0 ± 1.2 kcal/mol
[1]; pH 9
  Tm: 74.5 ± 0.02 °C
  ΔHcal: 157.5 ± 0.5 kcal/mol
  ΔHcal/ΔHvH: 1.02
  ΔHvH: 155.0 ± 1.3 kcal/mol
[1]; pH 10
  Tm: 74.5 ± 0.03 °C
  ΔHcal: 158 kcal/mol and 158.0 ± 0.5 kcal/mol
  ΔHcal/ΔHvH: 0.95
  ΔHvH: 167.0 ± 1.7 kcal/mol
[1]; pH 11
  Tm: 72.0 °C and 72.6 ± 0.02 °C
  ΔHcal: 142 kcal/mol and 141.5 ± 0.5 kcal/mol
  ΔHcal/ΔHvH: 1.01
  ΔHvH: 141.0 ± 1.3 kcal/mol
[1]; pH range of 8.0-10.0
  Melting temperature, Tm: around 74 °C
[1]; [3]
  Melting profile and denaturation temperature: unaltered
  ΔHcal: around 158±0.5 kcal/mol
[1]; [4]
  Tm: 74.5 ± 0.03 °C
  ΔHcal: 158 ± 0.6 kcal/mol
casein; 0.01-0.05% (w/v) STP, data not shown
  Enzyme activity after incubation: unchanged
casein; 0.01-0.05% (w/v) Zeolite, data not shown
  Enzyme activity after incubation: unchanged
casein; 0.5 M citrate, data not shown
  Original activity retained: more than 80%
casein; 1 M peroxide (H2O2) at 40° C. for 90 min
  Activity, % of the original: 60%
casein; 1.6 M peroxide (H2O2), 40° C.
  Effect on activity relative to 1 M peroxide: did not reduce the activity further
casein; between pH 6 and 11
  Residual activity (% of original activity): over 90%
casein; pH 12
  Residual activity (% of original activity): more than 70%
casein; 1 h incubation at 65° C., presence or absence of Ca^2+
  Thermal stability: very good stability
casein; 90 min incubation with 1% SDS at 40° C., pH 10.0
  Initial activity retained: About 75%
casein; incubated at 70° C.
  Time to inactivation: ≤ 1 h
Isoelectric point
  Isoelectric point: 4.2
[2]
  Ca^2+ content: 0.109 mol/mol

— US20060142171A1, “Novel alkaline protease” (priority 2003, published 2006)
